Results reported in US12043658B2, “Conjugate comprising an active MMP-9-binding peptide” (Daiichi Sankyo Company, Limited, priority 2017, dated 2024).

B1: M91005_D1G-Fc-01: N-terminal derivative Fc conjugate: Stag+linker 1, M91005_D1G, C-terminal 6-mer, G4S linker and human IgG1 Fc (protein)
chain: GSGMKETAAAKFERQHMDSPDLGTDDDDKAMADIGSANSGPQFGLFSKYRTPNCRKRGGPSCQMSYNPVCGSDMSTYANECTLCMKIREGGHNIKIIRNGPCGASAAAGGGGSDKTHTCPPCPAPELLGGPSVFLFPPKPKDTLMISRTPEVTCVVVDVSHEPEVKFNWYVDGVEVHNAKTKPREEQYNSTYRVVSVLTVLHQDWLNGKEYCKVSNKALPAPIEKTISKAKGQPREPQVYTLPPSREEMTKNQVSLTCLVGFYPSDIAVEWESNGQPENNYKTTPPVLDSDGSFFLYSKLTVDKSRWQQNVFSCSVMHEALHNHYTQKSLSLSPGK
B2: M91002_G2: C-terminal derivative of M91002: Stag+linker 2 at the N-terminal, C-terminal 2-mer Gly-Gly (protein)
chain: GSGMKETAAAKFERQHMDSPDLGTDDDDKAMAENLYFQGDPQFGLFSKYRTPNCRTGRGPACQMGFQPVCGSDMSTYANECTLCMKIREGGHNIKIIRNGPCGG
B3: M91002_G3: C-terminal derivative of M91002: Stag+linker 2 at the N-terminal, C-terminal 3-mer Gly-Gly-Gly (protein)
chain: GSGMKETAAAKFERQHMDSPDLGTDDDDKAMAENLYFQGDPQFGLFSKYRTPNCRTGRGPACQMGFQPVCGSDMSTYANECTLCMKIREGGHNIKIIRNGPCGGG
B4: M91002_G0: C-terminal derivative of M91002: Stag+linker 2 at the N-terminal, no C-terminal addition (protein)
chain: GSGMKETAAAKFERQHMDSPDLGTDDDDKAMAENLYFQGDPQFGLFSKYRTPNCRTGRGPACQMGFQPVCGSDMSTYANECTLCMKIREGGHNIKIIRNGPC
modifications: linker; binder
notes: C-terminal derivative of M91002: Stag+linker 2 at the N-terminal, no C-terminal addition
B5: wild type SPINK2: Serine Protease Inhibitor Kazal-type 2, human, SEQ ID NO: 1 (FIG. 15) (protein, listed as Homo sapiens)
chain: DPQFGLFSKYRTPNCSQYRLPGCPRHFNPVCGSDMSTYANECTLCMKIREGGHNIKIIRNGPC

Assays:
[1] = target: T1, human MMP-9 enzyme active domain E402Q mutant (Homo sapiens, UniProt P14780, E402Q); test: Size exclusion chromatography binding to hMMP-9(cat)_E402Q_His6; conditions: 25 μM enzyme, 75 μM inhibitor
T1 construct: an enzyme active domain E402Q mutant (Phe107-Pro449, E402Q) and a His tag; made in house; host or cells: FreeStyle 293F
Experimental: (§1) With M91005 and M91011 prepared in (1-2), active hMMP-9(cat)_His6 prepared in (2-1-4), and hMMP-9(cat)_E402Q_His6 prepared in (11-3), the binding activity was evaluated by size exclusion chromatography. 25 μM active hMMP-9(cat)_His6 or hMMP-9(cat)_E402Q_His6 and 75 μM active MMP-9-binding peptide or hTIMP-1 (in-house preparation) were mixed, and reacted at 4° C. for 1 hour. After the reaction, 10 μl of the reaction solution was analyzed by size exclusion chromatography. The chromatographic conditions were as follows.
(§2) Detection: Absorbance (280 nm)
(§3) When only active hMMP-9(cat)_His6 was analyzed, the peak of active hMMP-9(cat)_His6 was detected at a retention time of 7.0 minutes (FIG. 53(A)). When a mixture reaction solution of active hMMP-9(cat)_His6 and hTIMP-1 or active MMP-9-binding peptides M91005 or M91011 was analyzed, the retention time of the peak of active hMMP-9(cat)_His6 was shifted to the high molecular weight side (FIG. 53(A)). […] When only human MMP-9(cat)_E402Q_His6 was analyzed, the peak of hMMP-9(cat)_E402Q_His6 was detected at a retention time of 7.1 minutes (FIG. 53(B)). When a mixed reaction solution of human MMP-9(cat)_E402Q_His6 and hTIMP-1 was analyzed, the retention time of the peak of hMMP-9(cat)_E402Q_His6 was shifted to the high molecular weight side (FIG. 53(B)). […] In contrast, when a mixture reaction solution of hMMP-9(cat)_E402Q_His6 and the active MMP-9-binding peptide M91005 or M91011 was analyzed, the retention time of the peak of the hMMP-9(cat)_E402Q_His6 was not changed (FIG. 53(B)). It should be noted that when only hTIMP-1 or the active MMP-9-binding peptides M91005, M91011 was analyzed, the peak of hTIMP-1 was detected at a retention time of 7.3 minutes, the peak of the active MMP-9-binding peptide M91005 was detected at a retention time of 8.2 minutes, and the peak of the active MMP-9-binding peptide M91011 was detected at a retention time of 8.1 minutes (FIG. 53(C)).

[2] = target: T2, active human MMP-9 enzyme active domain (Homo sapiens, UniProt P14780); test: Size exclusion chromatography binding to active hMMP-9(cat)_His6; design: an enzyme active domain (Phe107-Pro449) and a His tag; made in house; host or cells: FreeStyle 293F; conditions: 25 μM enzyme, 75 μM inhibitor
Experimental: as §1, §2, §3

[3] = target: T3, human MMP-9 (active hMMP-9(cat)_His6) (Homo sapiens, UniProt P14780); test: Human MMP-9 inhibitory activity of active MMP-9-binding peptide derivatives (substrate peptide); type: biochemical; conditions: 0.6 nM active hMMP-9(cat)_His6
T3 construct: an enzyme active domain (Phe107-Pro449) and a His tag; made in house; host or cells: FreeStyle 293F
Experimental: The substrate peptide MOCAc-KPLGL-A2pr (Dnp)-AR-NH2 (SEQ ID NO: 30 (FIG. 46)) (PEPTIDE […], INC.; 3226-v) was dissolved in water to 1 mM, and diluted with an assay buffer (50 mM Tris-HCl, 200 mM NaCl, 2 mM CaCl2, pH 7.5) to use at a final concentration of 2.5 to 10 μM. Fifty μl each of the active hMMP-9(cat)_His6 diluted with the assay buffer and the active MMP-9-binding peptide were mixed, and reacted at 37° C. for 1 hour. Then, 100 μl of the substrate diluted with the assay buffer was added, and fluorescence signals (excitation 328 nm/emission 393 nm) were measured with Enspire (PerkinElmer, Inc.). The final concentration of active hMMP-9(cat)_His6 was 0.4 nM, and the final concentration of the active MMP-9-binding peptide was 0.5 to 25 nM. For reactions and measurements, a ProteoSave™ SS96F black plate (Sumitomo Bakelite Co., Ltd.) was used.
According to the method described in (4-1), human MMP-9 inhibitory activity of each of the binding peptides was evaluated with 0.6 nM final concentration of active hMMP-9(cat)_His6 and 0.0015 to 100 nM final concentration of each active MMP-9-binding peptide (FIGS. 11(A), 12(A), and 13(A)).

[4] = target: T2, active human MMP-9 enzyme active domain; test: ELISA binding to immobilized active human MMP-9 enzyme active domain; conditions: 1 to 1,000 nM peptide, S-tag detection
Experimental: (§4) The biotin-labeled pro-hMMP-9(cat)_His6_FLAG_Avi obtained in (2-1-6) or biotin-labeled active hMMP-9(cat)_FLAG_Avi obtained in (2-1-7) was immobilized on a streptavidin coated 96-well plate (Thermo Fisher Scientific). After blocking with 3% BSA, 1 to 1,000 nM of the binding peptides were added, and reacted at room temperature for 1.5 hours. After washing, goat anti-S-Tag HRP conjugated (Bethyl Laboratories, Inc.) was added, and reacted at room temperature for 1 hour. After washing, substrates of ELISA POD substrate A.B.T.S kit (Nacalai Tesque Inc.) were added, and reacted at room temperature. After adding a reaction stop solution, the absorbance at 405 nm was measured with Enspire (PerkinElmer, Inc.), and MMP-9-binding activity of the active MMP-9-binding peptides was evaluated.

[5] = target: T4, pro human MMP-9 enzyme active domain (Homo sapiens, UniProt P14780); test: ELISA binding to immobilized pro human MMP-9 enzyme active domain; conditions: 1 to 1,000 nM peptide, S-tag detection
T4 construct: a propeptide (Ala20-Arg106), an enzyme active domain (Phe107-Pro449), a FLAG tag; made in house; host or cells: FreeStyle 293F
Experimental: as §4

T3 sequence (P14780 107-449): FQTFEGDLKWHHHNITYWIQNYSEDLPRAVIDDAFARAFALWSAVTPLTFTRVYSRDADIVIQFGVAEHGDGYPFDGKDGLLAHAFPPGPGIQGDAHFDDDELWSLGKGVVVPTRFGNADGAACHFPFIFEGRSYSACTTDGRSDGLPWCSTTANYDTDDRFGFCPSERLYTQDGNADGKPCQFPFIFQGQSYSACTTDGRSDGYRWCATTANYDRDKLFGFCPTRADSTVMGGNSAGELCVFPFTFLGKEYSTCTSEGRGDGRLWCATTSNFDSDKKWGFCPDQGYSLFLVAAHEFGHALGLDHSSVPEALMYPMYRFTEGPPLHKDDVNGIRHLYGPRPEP
T2 sequence (P14780 107-449): as above
T4 sequence (P14780 20-449): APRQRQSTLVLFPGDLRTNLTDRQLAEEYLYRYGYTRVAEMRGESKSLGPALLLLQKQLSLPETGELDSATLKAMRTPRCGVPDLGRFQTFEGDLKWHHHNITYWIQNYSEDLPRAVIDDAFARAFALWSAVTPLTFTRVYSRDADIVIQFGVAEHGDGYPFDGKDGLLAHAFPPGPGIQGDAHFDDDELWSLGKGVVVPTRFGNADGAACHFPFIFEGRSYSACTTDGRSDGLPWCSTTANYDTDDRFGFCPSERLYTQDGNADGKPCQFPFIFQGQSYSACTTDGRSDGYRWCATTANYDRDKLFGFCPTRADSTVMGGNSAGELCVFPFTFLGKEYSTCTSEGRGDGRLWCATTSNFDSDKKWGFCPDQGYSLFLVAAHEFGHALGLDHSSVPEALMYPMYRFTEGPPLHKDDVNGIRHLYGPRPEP
T1 sequence (P14780 107-449 E402Q): as the sequence (P14780 107-449) above, with E296Q counted along it

Molecule	human MMP-9 inhibitory activity IC50 compared with parent [3]	other results
hTIMP-1: hTIMP-1 (in-house preparation) [reference compound]	–	binding to human MMP-9 enzyme active domain E402Q mutant (peak shift) [1]: binds to the human MMP-9 enzyme active domain E402Q mutant; binding to active human MMP-9 enzyme active domain (peak shift) [2]: bind to the active human MMP-9 enzyme active domain
B1	M91005-Fc-01 and M91005_D1G-Fc-01 are equivalent	–
B2	equivalent to that of M91002	–
B3	equivalent to that of M91002	–
B4	equivalent to that of M91002	–
B5	–	active human MMP-9-binding activity (EC50) [4]: did not bind; pro human MMP-9-binding activity [5]: did not bind
